Peptide text beside a SMILES is read from it. * marks the point of attachment. Cbz = O=C(OCc1ccccc1)*; CH2F = FC*

The values below come from patent US20040018529A1, “Functional cloning of genes encoding proteins/enzymes involved in proteolytic cleavage” (priority 1999, published 2004).

Assay [1] has as its system 293T cells. Nature of the assay: Apoptosis assay by visual inspection of transfected cells. The format is cell-based, Human. As to the method: Apoptosis assays 293T cells were seeded onto 60 mm dishes at a density of 1.5×10^6 cells and, the next day, were transiently transfected with 2.5 μg plasmid DNA mixed with 15 μl lipofectamin reagent (Life Technologies, Grand Island, N.Y.). Twenty-four or 48 h after transfection, cell death was analyzed by one of the following methods. For the first assay, apoptosis was quantitated by visual inspection of cells. Cells with a shrunken, rounded, detached or blebbed appearance were scored as apoptotic. Usually 3 or more random fields were photographed and counted, and each field contained at least several hundred cells. In the case of co-transfection with green fluorescent protein (GFP)-expressing plasmid, cells were examined with an inverted fluorescent microscope, and only green cells with apoptotic features were counted. The second apoptotic assay used was the detection of nucleosomal ladder in apoptotic cells using ApoAlert LM-PCR ladder assay kit from Clontech. The procedure recommended by Clontech was followed.

The target in assay [2] is modified caspase-3 containing the β-secretase cleavage site of APP of the Swedish version (expressed from plasmid pCBC1) (human). Kind of assay: cell-based or functional assay.
The subject of assay [3] is modified caspase-3. Kind of assay: Western blot analysis of processing of the modified caspase-3. The format is cell-based, Human. Particulars: 293T cells, co-transfection with pCBC1, compared with the control. The source says:
Western blot analysis Cells were collected in PBS and immediately lysed by the addition of an equal volume of 2×SDS loading buffer. After boiling and centrifugation, supernatants containing equal amount of proteins were loaded onto 14% SDS-PAGE gels. The proteins were resolved and transferred to a nylon membrane, and probed with antibodies against human caspase-3 (Santa Cruz Biotech, Santa Cruz, Calif.).

The test system of assay [4] is β-secretase. Kind of assay: β-NTF assay (ELISA of medium of transfected 293T cells). The settings on record: co-transfection with the APP expression plasmid, 48 h. The format is cell-based, Human. Here is the method:
β-NTF assay 293T cells were seeded onto 60 mm dishes at a density of 1.5×10^6 cells and, the next day, were transiently transfected with 2.5 μg plasmid DNA mixed with 15 μl lipofectamin reagent (Life Technologies, Grand Island, N.Y.). In the case of transfection with pAPPsw plasmid, 0.5 μg pAPPsw was mixed with 2.0 μg carrier plasmid (unrelated plasmid). Twenty-four or 48 h after transfection, medium was collected and determined for […] by ELISA method as described [Liu, 2000]
A general note: In an ELISA, binding on a coated surface is turned into a signal by an enzyme label.

Assay [5] relates to caspase-3. Nature of the assay: Caspase-3 activity assay (ApoAlert CPP32/Caspase-3 Fluorescent Assay kit). The format is cell-based, Human. The settings on record: 293T cells, co-transfection with pCBC1, compared with controls. An excerpt:
The protease activity of the caspase is also directly monitored in the cell extracts prepared as above. The ApoAlert® Caspase-3 assay kit, available commercially from Clontech, allows convenient fluorometric or colorimetric detection and assay of caspase-3. For example, the fluorescent kit detects the emission shift of 7-amino-4-trifluoromethyl coumarin (AFC). The AFC-substrate conjugate, DEVD-AFC, usually emits blue light (λmax=400 nm). However, upon proteolytic cleavage of the substrate by Caspase-3, free AFC fluoresces yellow-green (λmax=505 nm). Thus monitoring of emission at 505 nm in the cell extract, in relation to the uninduced control extract, allows determination of caspase activity. The activity can also be quantitated accurately and reproducibly using a standard curve established with free AFC. As described above, if there is endogenous expression of enzyme X in these cells, the caspase activity is generated in cells transfected only with pCTC1 (+) but not with pCTC1 (−).
Caspase-3 activity assay Caspase-3 activity was determined following the instructions of ApoAlert CPP32/Caspase-3 Fluorescent Assay kit (Clontech).

With `COC(=O)C[C@H](NC(=O)[C@H](C)NC(=O)[C@@H](NC(=O)OCc1ccccc1)C(C)C)C(=O)CF` [Z-VAD.fmk, reference compound] (Cbz-Val-Ala-Asp(OMe)-CH2F), the “cell death caused by transfection of pCBC1 plasmids” value in assay [1] (10 μM inhibitor added immediately after DNA transfection) is “significantly prevented cell death”.
With “endogenous β-secretase activity of human embryonic kidney 293T cells (enzyme)”, in assay [2], the caspase-3 activity in transfected 293T cells (caspase-3 fluorescent assay), over mock-transfected cells, 24 and 48 h was 10 fold.

B1: BACE2: BACE2 expression plasmid; BACE2 competes in vivo with β-secretase for β-site APP cleavage (protein, UniProt Q9Y5Z0 63-518, looked up)
Beta-secretase 2: ALEPALASPAGAANFLAMVDNLQGDSGRGYYLEMLIGTPPQKLQILVDTGSSNFAVAGTPHSYIDTYFDTERSSTYRSKGFDVTVKYTQGSWTGFVGEDLVTIPKGFNTSFLVNIATIFESENFFLPGIKWNGILGLAYATLAKPSSSLETFFDSLVTQANIPNVFSMQMCGAGLPVAGSGTNGGSLVLGGIEPSLYKGDIWYTPIKEEWYYQIEILKLEIGGQSLNLDCREYNADKAIVDSGTTLLRLPQKVFDAVVEAVARASLIPEFSDGFWTGSQLACWTNSETPWSYFPKISIYLRDENSSRSFRITILPQLYIQPMMGAGLNYECYRFGISPSTNALVIGATVMEGFYVIFDRAQKRVGFAASPCAEIAGAAVSEISGPFSTEDVASNCVPAQSLSEPILWIVSYALMSVCGAILLVLIVLLLLPFRCQRRPRDPEVVNDESSLVRHRWK
On to B1, for which, in assay [3], the “processed caspase-3 fragment (12 kDa)” value is “significantly reduced”. Besides, the “number of apoptotic cells / cell death caused by the modified caspase-3” value in assay [1] (co-transfection with pCBC1, compared with controls) was “significantly reduced the number of apoptotic cells”. In assay [4], the “generation of β-NTF” value was “significantly inhibited the generation of β-NTF”. Besides, the caspase-3 activity result in assay [5] is on record as “lower caspase-3 activity than the controls”.

B2: BACE2(D110A): catalytically inactive mutant of BACE2, expressed from plasmid (protein)
chain: APELAPAPFTLPLRVAAATNRVVAPTPGPGTPAERHADGLALALEPALASPAGAANFLAMVDNLQGDSGRGYYLEMLIGTPPQKLQILVATGSSNFAVAGTPHSYIDTYFDTERSSTYRSKGFDVTVKYTQGSWTGFVGEDLVTIPKGFNTSFLVNIATIFESENFFLPGIKWNGILGLAYATLAKPSSSLETFFDSLVTQANIPNVFSMQMCGAGLPVAGSGTNGGSLVLGGIEPSLYKGDIWYTPIKEEWYYQIEILKLEIGGQSLNLDCREYNADKAIVDSGTTLLRLPQKVFDAVVEAVARASLIPEFSDGFWTGSQLACWTNSETPWSYFPKISIYLRDENSSRSFRITILPQLYIQPMMGAGLNYECYRFGISPSTNALVIGATVMEGFYVIFDRAQKRVGFAASPCAEIAGAAVSEISGPFSTEDVASNCVPAQSLSEPILWIVSYALMSVCGAILLVLIVLLLLPFRCQRRPRDPEVVNDESSLVRHRWK
B2: the “processed caspase-3 fragment (12 kDa)” value in assay [3] is listed as “significantly reduced”. Besides, the “generation of β-NTF” value in assay [4] is given as “significantly inhibited the generation of β-NTF”. Also, the caspase-3 activity result in assay [5] is “lower caspase-3 activity than the controls”.
